Two molecules from article PMC5339286, “A Novel Soybean ERF Transcription Factor, GmERF113, Increases Resistance to Phytophthora sojae Infection in Soybean” can be followed below.

The target of this data set is GmERF113 (Glycine max (soybean) cv. Suinong 10, UniProt I1ML94 1-260). Kind of data set: EMSA; EMSA as described by Liu et al. (2006); buffer, salt, pH and temperature not stated. The settings on record: protein: recombinant. (Mobility shift assays separate free from complexed probe on a gel.)
GmERF113, sequence (I1ML94 entry or part of it): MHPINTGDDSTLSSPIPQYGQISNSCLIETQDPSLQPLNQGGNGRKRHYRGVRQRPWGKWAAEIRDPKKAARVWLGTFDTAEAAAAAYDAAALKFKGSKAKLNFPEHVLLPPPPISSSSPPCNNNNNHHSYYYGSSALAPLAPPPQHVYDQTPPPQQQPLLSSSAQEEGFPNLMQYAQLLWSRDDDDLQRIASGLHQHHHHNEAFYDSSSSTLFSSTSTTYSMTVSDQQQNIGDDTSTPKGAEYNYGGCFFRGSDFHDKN

B1: GCC probe (GCC-box) (dsDNA)
DNA 1: ATCCATAAGAGCCGCCACTAAAATAAGACCGATCAA
DNA 2: TTGATCGGTCTTATTTTAGTGGCGGCTCTTATGGAT
Take B1: the binding result was “binds”.

B2: mGCC probe (mutated GCC-box) (dsDNA)
DNA 1: ATCCATAAGATCCTCCACTAAAATAAGACCGATCAA
DNA 2: TTGATCGGTCTTATTTTAGTGGAGGATCTTATGGAT
Regarding B2, the binding result is recorded as “no binding”.
